Laboratory results as given in patent US9233155B2, “Method of treating solid cancers using anti-c-Met antibody and sorafenib combination therapy” (Samsung Electronics Co., Ltd., priority 2013, dated 2016).

B1: L3-1Y: anti-c-Met antibody: heavy chain variable region of huAbF46-H4-A1, human IgG2 hinge and IgG2 constant region, kappa light chain (antibody)
heavy: EVQLVESGGGLVQPGGSLRLSCAASGFTFTDYYMSWVRQAPGKGLEWLGFIRNKANGYTTEYSASVKGRFTISRDNSKNTLYLQMNSLRAEDTAVYYCARDNWFAYWGQGTLVTVSSASTKGPSVFPLAPCSRSTSESTAALGCLVKDYFPEPVTVSWNSGALTSGVHTFPAVLQSSGLYSLSSVVTVPSSNFGTQTYTCNVDHKPSNTKVDKTVERKCCVECPPCPAPPVAGPSVFLFPPKPKDTLMISRTPEVTCVVVDVSHEDPEVQFNWYVDGVEVHNAKTKPREEQFNSTFRVVSVLTVVHQDWLNGKEYKCKVSNKGLPAPIEKTISKTKGQPREPQVYTLPPSREEMTKNQVSLTCLVKGFYPSDIAVEWESNGQPENNYKTTPPMLDSDGSFFLYSKLTVDKSRWQQGNVFSCSVMHEALHNHYTQKSLSLSPGK
light: DIQMTQSPSSLSASVGDRVTITCKSSQSLLASGNQNNYLAWYQQKPGKAPKMLIIWASTRVSGVPSRFSGSGSGTDFTLTISSLQPEDFATYYCQQSYSRPYTFGQGTKVEIKRTVAAPSVFIFPPSDEQLKSGTASVVCLLNNFYPREAKVQWKVDNALQSGNSQESVTEQDSKDSTYSLSSTLTLSKADYEKHKVYACEVTHQGLSSPVTKSFNRGEC

Columns and labels:
EBC1 lung cancer cells = assay: Cell growth inhibition in EBC1 lung cancer cell line (CellTiter Glo); type: cell-based; conditions: L3-1Y 0-2 μg/mL alone, sorafenib 4 μM alone, or both; 72 hours
Experimental: (§1) In particular, RPMI1640 medium (GIBCO) containing 10% FBS added to a 96 well plate. EBC1 lung cancer cells (JCRB, JCRB0820) were seeded thereon in the amount of 5,000 cells/well, and incubated overnight at 37° C. After 24 hours (the next day), the incubated cells were treated with (a) L3-1Y (Reference Example 1) alone or (b) L3-1Y and sorafenib. For the single treatment of L3-1Y alone, the concentration of L3-1Y was 0 μg/mL, 0.016 μg/mL, 0.08 μg/mL, 0.4 μg/mL, or 2 μg/mL. For the co-treatment of L3-1Y and sorafenib, the concentration of sorafenib was fixed at 4 μM, and the concentration of L3-1Y was 0 μg/mL, 0.016 μg/mL, 0.08 μg/mL, 0.4 μg/mL, or 2 μg/m L.
(§2) At 72 hours after the single treatment or the co-treatment, 100 μL of CellTiter Glo solution (Promega, G7572) was added to each well, and left for 30 minutes at room temperature. The cell number was counted by emission signal, and the emission signal was recorded using Envision 2104 Multi-label Reader (Perkin Elmer).

HT29 colon cancer cells [1] = assay: Tumor xenograft model of colon cancer cell line HT29; type: in vivo, BALB/c nude mice; conditions: for Tumor Inhibition Rate at 21st day (%; compared to vehicle-treated group (0%)): sorafenib 3.3 mg/kg P.O. once a day, L3-1Y 1 mg/kg I.V. once a week, day 21
Experimental: (§3) To verify the in vivo effect of the co-administration on tumor growth, a tumor xenograft model using male 5-6 week-old BALB/c nude mice (Pharmalegacy, China) was prepared. The mice were adapted at least one week before inoculation of tumor cells.
(§4) Then, the mice were anesthetized with 1-2% isofurane, and HT29 colon cancer cells I(ATCC, HTB-38) were subcutaneously injected into the right flank of the mice at the amount of 5×10^6 cells per mouse. 7 days after, when the average size of the tumor reaches 50 mm^3 or more, the mice were grouped as follows: a group treated with sorafenib (3.3 mg/kg, P.O., once a day), a group treated with L3-1Y (1 mg/kg, I.V., once a week), a group co-treated with L3-1Y (1 mg/kg, I.V., once a week) and sorafenib (3.3 mg/kg, P.O., once a day), and a group (control) treated with vehicle (PBS 0.2 ml, I.V., once a week).
(§5) The experiment was performed for 4 weeks in total, and tumor size and body weight of the mice were measured twice a week. The tumor volume (V) was calculated by the following formula: V (mm^3)={length of long axis (mm)×(length of short axis (mm))^2}/2.

[2] = tested on: MKN45 gastric cancer cells; assay: Cell growth inhibition in MKN45 gastric cancer cell line (CellTiter Glo); type: cell-based
Experimental: as §1, with “FBS was” for “FBS”, “MKN45 gastric” for “EBC1 lung”, “JCRB0254)” for “JCRB0820)”, “co-administration” for “co-treatment”, “μM, which is a concentration of IC30 in MKN45 cell line,” for “μM,”, “μg/mL.” for “μg/m L.”
as §2

[3] = tested on: MKN45 gastric cancer cells; assay: Tumor xenograft model of gastric cancer cell line MKN45; type: in vivo, BALB/c nude mice; conditions: sorafenib 3.3 mg/kg P.O. once a day, L3-1Y 1 mg/kg I.V. once a week, day 21
Experimental: as §3
as §4, with “and MKN45 gastric” for “and HT29 colon”, “cells (JCRB, JCRB0254)” for “cells I(ATCC, HTB-38)”, “mice in” for “mice at”, “week). Each group consisted of 10 mice.” for “week).”
as §5

HT29 colon cancer cells [4] = assay: Cell growth inhibition in HT29 colon cancer cell line (CellTiter Glo); type: cell-based; conditions: L3-1Y 0-2 μg/mL alone or with sorafenib fixed at 4 μM, 72 hours
Experimental: as §1, with “FBS was” for “FBS”, “HT29 colon” for “EBC1 lung”, “(ATCC, HTB-38)” for “(JCRB, JCRB0820)”, “μg/mL.” for “μg/m L.”
as §2

[5] = tested on: HCC1806 breast cancer cell line; assay: Cell growth inhibition in HCC1806 breast cancer cell line (CellTiter Glo); type: cell-based; conditions: L3-1Y 0-2 μg/mL alone or with sorafenib fixed at 3 μM, 72 hours

| Molecule | cell growth inhibiting effect (EBC1 lung cancer cells) | Tumor Inhibition Rate at 21st day (%; compared to vehicle-treated group (0%)) (HT29 colon cancer cells [1]) [%] | inhibition at 4 µM ([2]; Homo sapiens, MKN-45, single treatment of sorafenib 4 μM (0 μg/mL of L3-1Y), 72 hours, read-out: cell growth inhibition rate) [%] | concentration of IC30 in MKN45 cell line ([2]; MKN45 cell line) [µM] | Tumor Inhibition Rate at 21st day (%; compared to vehicle-treated group (0%)) [3] [%] | cell growth inhibiting effect (HT29 colon cancer cells [4]) | tumor inhibiting effect (HT29 colon cancer cells [1]; same doses as Table 4) | cell growth inhibiting effect ([2]; L3-1Y 0-2 μg/mL alone or with sorafenib fixed at 4 μM, 72 hours) | cell growth inhibiting effect ([2]; L3-1Y 0.08 μg/mL, alone or with 4 μM sorafenib, 72 hours) | cell death / cell growth inhibiting effect [5] |
| --- | --- | --- | --- | --- | --- | --- | --- | --- | --- | --- |
| CNC(=O)c1cc(Oc2ccc(NC(=O)Nc3ccc(Cl)c(C(F)(F)F)c3)cc2)ccn1 [Sorafenib, 4-[4-[[4-chloro-3-(trifluoromethyl)phenyl]carbamoylamino]phenoxy]-N-methyl-pyridine-2-carboxamide] | no cell growth inhibiting effect | 22.1 | 30 | 4 | 24.7 |  |  |  |  |  |
| B1 | observed | −0.9 |  |  | 36.2 | not observed | no tumor inhibiting effect | observed | only a little effect | not observed |
